Measured values taken from paper PMC2173062 (The Journal of Cell Biology, 2002).

How the values were obtained:
[1] = biological target: bovine Hsc70 R447H, recombinant mutant (bovine, UniProt P19120 1-650, R447H); assay: pull-down
[2] = biological target: bovine Hsc70, recombinant wild type (bovine, UniProt P19120 1-650); assay: pull-down
Sequence of bovine Hsc70, recombinant wild type (P19120 whole entry): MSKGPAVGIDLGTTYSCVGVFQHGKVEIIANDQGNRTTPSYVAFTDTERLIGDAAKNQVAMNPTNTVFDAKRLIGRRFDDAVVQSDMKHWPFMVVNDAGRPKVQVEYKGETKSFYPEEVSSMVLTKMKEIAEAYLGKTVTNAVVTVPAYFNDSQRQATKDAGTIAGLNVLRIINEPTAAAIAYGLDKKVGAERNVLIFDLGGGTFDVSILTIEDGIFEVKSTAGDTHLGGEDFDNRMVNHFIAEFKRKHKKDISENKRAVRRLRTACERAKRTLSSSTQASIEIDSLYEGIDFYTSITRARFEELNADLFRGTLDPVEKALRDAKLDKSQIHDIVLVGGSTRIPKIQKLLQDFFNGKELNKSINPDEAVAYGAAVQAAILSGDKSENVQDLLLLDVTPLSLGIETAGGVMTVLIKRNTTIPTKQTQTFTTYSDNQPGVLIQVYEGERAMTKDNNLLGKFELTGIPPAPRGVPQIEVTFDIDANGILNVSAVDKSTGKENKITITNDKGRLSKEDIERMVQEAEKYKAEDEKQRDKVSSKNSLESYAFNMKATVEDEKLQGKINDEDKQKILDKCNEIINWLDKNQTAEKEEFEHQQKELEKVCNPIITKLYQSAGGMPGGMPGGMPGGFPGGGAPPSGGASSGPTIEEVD

Sequence of bovine Hsc70 R447H, recombinant mutant (P19120 whole entry R447H): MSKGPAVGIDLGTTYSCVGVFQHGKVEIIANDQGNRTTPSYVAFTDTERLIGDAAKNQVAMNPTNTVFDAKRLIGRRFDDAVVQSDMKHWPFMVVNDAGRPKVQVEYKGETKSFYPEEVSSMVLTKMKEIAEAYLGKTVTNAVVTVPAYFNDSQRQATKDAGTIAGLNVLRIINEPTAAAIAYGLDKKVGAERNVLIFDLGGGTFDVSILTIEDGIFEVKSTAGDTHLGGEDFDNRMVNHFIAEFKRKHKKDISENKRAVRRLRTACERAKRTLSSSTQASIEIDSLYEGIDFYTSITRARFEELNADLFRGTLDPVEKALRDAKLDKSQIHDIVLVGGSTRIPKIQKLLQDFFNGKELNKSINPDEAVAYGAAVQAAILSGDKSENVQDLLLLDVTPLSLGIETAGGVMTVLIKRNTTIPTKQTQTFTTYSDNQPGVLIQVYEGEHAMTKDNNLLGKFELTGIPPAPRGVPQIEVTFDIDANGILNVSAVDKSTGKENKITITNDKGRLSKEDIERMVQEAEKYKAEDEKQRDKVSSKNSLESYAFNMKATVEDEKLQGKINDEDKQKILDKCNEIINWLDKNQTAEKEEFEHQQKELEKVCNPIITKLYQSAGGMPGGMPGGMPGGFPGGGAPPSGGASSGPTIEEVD

B1: GST-J^aux, J-domain of bovine auxilin (residues 813-910) fused to GST (domain or fragment, UniProt Q27974 813-910, looked up)
chain: DPEKLKILEWIEGKERNIRALLSTMHTVLWAGETKWKPVGMADLVTPEQVKKVYRKAVLVVHPDKATGQPYEQYAKMIFMELNDAWSEFENQGQKPLY
**Q.** Does B1 bind [1]?
**A.** binds

**Q.** Does B1 bind [2]?
**A.** binds
